Source: the supplement of paper PMC10567573

B1: CFHR2 (parent)
chain: FVENGHSESSGQTHLEGDTVQIIC
B2: PTPN9 (parent)
chain: TQHLPRECLPENLGGYVKIDLATW

Variants of: B1
Assay: protein stability index of a GFP-peptide fusion (GPS, HEK-293T) (PSI 1-6); higher = more stable
Conditions: c terminus: a fixed tail appended
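Further: lentivirally expressed fusions sorted by FACS into six bins by GFP to DsRed ratio, PSI derived from sequencing read proportions per bin multiplied by bin number.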

Protein stability index: each site, then its substitutions
Q21: E 3.15 | F 1.91 | G 3.01 | H 2.24 | I 1.82 | K 2.83 | L 1.17 | M 1.92 | N 3.29 | P 3.04 | R 2.9 | S 2.91 | T 2.79 | V 1.85 | Y 2.58
I22: A 3.56 | C 3.17 | D 4.25 | E 4.08 | F 3.03 | G 3.85 | H 3.58 | K 3.74 | L 2.34 | M 2.63 | N 3.49 | P 3.99 | Q 3.74 | R 3.53 | S 4.26 | T 3.87 | V 3.02 | W 1.67 | Y 3.1
I23: A 3.95 | C 2.73 | D 4.42 | E 4.13 | F 2.1 | G 3.52 | H 3.47 | K 3.35 | L 3.71 | M 2.83 | N 3.77 | P 3.24 | Q 3.35 | R 2.9 | S 3.21 | T 3.88 | V 3.22 | W 2.35 | Y 2.11
C24: A 3.96 | D 4.46 | E 3.88 | F 1.88 | G 3.8 | H 3.23 | I 2.49 | K 3.29 | L 2.38 | M 2.28 | N 3.42 | P 3.87 | Q 4.31 | R 3.57 | S 3.91 | T 3.61 | V 1.95 | W 3.05 | Y 2.08

Variants of: B2
Assay: as above
Conditions: c terminus: a fixed tail appended

Protein stability index, by site and new letter:
T1: A 2.06 | C 1.51 | D 2.51 | E 2.06 | F 2.14 | G 2.15 | H 2.07 | I 1.72 | K 1.88 | L 1.67 | M 1.57 | N 2.18 | P 2.07 | Q 2.05 | R 2.1 | S 2.11 | V 1.74 | W 2.54 | Y 2.31
Q2: A 1.84 | C 2.11 | D 2.02 | E 2.08 | F 1.31 | G 2.5 | H 1.52 | I 1.96 | K 1.86 | L 2.17 | M 1.47 | N 2.05 | P 2.02 | R 1.76 | S 1.73 | T 1.99 | V 1.66 | W 1.49 | Y 2.48
H3: A 1.84 | C 1.91 | D 2.86 | E 2.28 | F 2.35 | G 2.1 | I 1.79 | K 2.03 | L 1.92 | M 1.92 | N 2.03 | P 1.77 | Q 1.91 | R 1.56 | S 2.15 | T 2.45 | V 1.64 | W 1.65 | Y 1.66
L4: A 1.8 | C 2.43 | D 2.31 | E 2.46 | F 2.06 | G 1.96 | H 2.53 | I 1.86 | K 2.1 | M 2.38 | N 2 | P 2.5 | Q 2.82 | R 2.04 | S 1.8 | T 1.98 | V 1.96 | W 2.14 | Y 1.99
P5: A 2.18 | C 1.77 | D 2.26 | E 2.6 | F 1.82 | G 1.73 | H 1.95 | I 2.88 | K 2.68 | L 2.83 | M 1.53 | N 2.04 | Q 1.66 | R 2.45 | S 1.89 | T 1.92 | V 1.57 | W 2.33 | Y 1.64
